According to US20020115592A1, “Pharmaceutical compositions containing insulin” (Provalis UK Limited, priority 1998, published 2002):

Columns and labels:
[1] = Appearance on addition of Akoline to the insulin solution; type: physicochemical; conditions: Insulin 7 mg
[2] = Dissolution of insulin (optionally with aprotinin) in non-aqueous hydrophilic solvent/cosolvent; type: physicochemical; conditions: Insulin 7 mg
[3] = Gly (20 μl), PEG/L-lactic (20 μl/10 mg)
[4] = Gly (20 μl), PEG/NaAc (20 μl/10 mg)
[5] = Gly (40 μl), Acetic acid (10 mg)
[6] = Gly (40 μl), L-lactic acid (10 mg)
[7] = PD (40 μl), Na-L lactate (10 mg)
[8] = PEG (25 μl), DL-lactic acid (25 μl)
[9] = PEG (50 μl), Glycerol/TEA (50 μl/10 gl)
[10] = PG (40 μl), Acetic acid (10 mg)
[11] = PG (40 μl), Caproic acid (10 mg)
[12] = PG (40 μl), Citric acid (10 mg)

Insulin
Translucent: Addition of Akoline ([1]; Gly (40 μl), NaAc (10 mg)) | Addition of Akoline ([1]; PEG (20 μl), L-lactic (10 mg)) | Addition of Akoline [1, 10] | Addition of Akoline [1, 11] | Addition of Akoline [1, 12]
Suspension: Addition of Akoline ([1]; PEG (25 μl), DL-lactic acid (25 μl), (Akoline/POE)) | Addition of Akoline [1, 9]
Clear: Addition of Akoline [1, 4] | Addition of Akoline ([1]; PD (20 μl), benz. SO3H (10 mg)) | Addition of Akoline [1, 7] | Addition of Akoline ([1]; PD (40 μl), NaAc (10 mg)) | Addition of Akoline ([1]; PEG (20 μl), NaAc (10 mg))
Clear solution: Addition of Akoline ([1]; PEG (40 μl), camitine (10 mg))
Turbid: Addition of Akoline [1, 3] | Addition of Akoline [1, 6] | Addition of Akoline ([1]; PD (40 μl), L-lactic (10 mg))
Yes: Soluble? [2, 3] | Soluble? [2, 4] | Soluble? [2, 5] | Soluble? [2, 6] | Soluble? ([2]; Gly (40 μl), NaAc (10 mg)) | Soluble? ([2]; PD (20 μl), benz. SO3H (10 mg)) | Soluble? ([2]; PD (40 μl), L-lactic (10 mg)) | Soluble? [2, 7] | Soluble? ([2]; PD (40 μl), NaAc (10 mg)) | Soluble? ([2]; PEG (20 μl), L-lactic (10 mg)) | Soluble? ([2]; PEG (20 μl), NaAc (10 mg)) | Soluble? [2, 8] | Soluble? ([2]; PEG (25 μl), DL-lactic acid (25 μl), listed as with Akoline/POE) | Soluble? ([2]; PEG (40 μl), camitine (10 mg)) | Soluble? [2, 9] | Soluble? [2, 10] | Soluble? [2, 11] | Soluble? [2, 12]
Cloudy: Addition of Akoline [1, 8]
Opaque: Addition of Akoline [1, 5]
